Measurements published in the DeepSol protein solubility set.

Experiment: soluble on expression in E. coli; label from the status in PepcDB or PDB records

Question: With “AHHHHHHGSIIIMDNGGQYVHRIWRTLRYLGVEAKIIPNTTPLDEIKAMKPKGIIFSGGPSLENTGNCEKILEHYEEFNVPILGICLGHQLIAKFFGGEVGRGEKAEYSLVEIEIIDENDIFKGLPRKVRVWESHMDEVKKLPPKFKLLARSDTCPVEAMKHEELPIYGVQFHPEVAHTEHGADILRNFAKICGEL” as the sequence, how does the “soluble on expression in E. coli” value read?
Answer: soluble

Question: Which “soluble on expression in E. coli” value does the source give for “AHHHHHHGSIPIAKPLIGEEEINAVIEVLKSGMLAHGKEVEAFEREFASYIGVKHGIAVVNGTAALDIALKALKIKPGDEIITTPFTFIASANAILFQGAKPVFADIDPKTYNLDPDEVLEKINEKTKAIIVVHLYGQPADMKAFKEIAEDYKLYLIEDCAQAHGAEFEGQKVGTFGDIAAFSFYPTKNMTTGEGGMVLTNDDELARRARLIRNHGQTEKYLHEELGYNLRMTNIAAALGRVQLRKLDKWNEIRIENAELLTKGIKRIKGLTPPYVDKRVKHVFHQYVIRVEDDFPLTRDELREKLMEKGIGTAVHYPMPVHHQPLYQRLGYSKDCCPNAIEASKRVLSLPVHPAVSKEDINYIIRTLEELG” here?
Answer: not soluble

Question: For “AHHHHHHGSKVEGFVASLRNAETIDDLFAILKKKGAPVVEFDGMKKLVIVEGDFEGEKFWTEINGAKANLALGDAMLNAASVPFKCKRDFTGGNLILLDFDSIESNEFLIAYVSEKSGVYFHVKAEEVKEITKEEYDELKDRMPEFKAKSYSEEEMEGMGAFFG”, which “soluble on expression in E. coli” value is on record?
Answer: soluble

Question: With “AHHHHHHGSKWEEWKPFYERIVKEMGYSIEEDRRAAELLRDILMENDNYIIKEELNSIIMQKVYVFGAGPNLEEALKKGDFKDGTKIAADGATSALLEYGITPDVVVTDLDGRIRDLLEASRKAVMVVHAHGDNMDKLPLVVEFPLVLGTCQTEPLDIVYNFGGFTDGDRAAFLAEEMGAKEIVLVGFDFSGIVGKWSKPWLRDHTPAWESKMKKLKFARELLEWLKNNGRAKIIEFSI” as the sequence, how does the “soluble on expression in E. coli” value read?
Answer: not soluble

Question: For “AHHHHHHGSNQLEAVREKLRVIRMLRVLKKTYTYEDLSEITGLPVTVLNRYVKGKVLPSVERARELFEKLSPYLNLEEEVKKRLRFDSHGFFDSMSVLSDTNLLALISEDVALKYMKVGVEKILTAATDGIPLAVQIANELGVDVVYAKKKKEVGVERFYEVNYIPSASGSITTLYLPTWALKKGERVLIVDDVVRSGETQRALVELCRQAGAIPVGMFFLISVGDIVERLKEEYNIPVEALVNL”, which “soluble on expression in E. coli” value is on record?
Answer: soluble

Question: Which “soluble on expression in E. coli” value does the source give for “AHHHHHHGSTLRLLNDFVKDKLFGETVLVENNSYLGVETLLFVIFKLGEELNVPILVEDVLDTFSIYKKHLEMLGLKTPENIKILKIGGSEEGKGVVKRIPFDFDISRYLLEYGKSFEDVSPKEKFIDLVFGLDRFFILIDNLIDTAKLLNSIKNYIHNENRTAFYFIEANLLKATKPIILYYLEDIATSVVRINQEKNILTFEPVKDIWSVRNKINQISISFGDLFRETL” here?
Answer: not soluble

Question: For “AHHHHHHGSVEVKKHKFPGVYVVIDDDGSEKIATKNLVPGQRVYGERVIKWEGEEYRIWNPHRSKLGAAIVNGLKNFPIKPGKSVLYLGIASGTTASHVSDIVGWEGKIYGIEFSPRVLRELVPIVEERRNIIPILGDATKPEEYRALVTKVDVIFEDVAQPTQAKILIDNAKAYLKRGGYGMIAVKSRSIDVTKEPEQVFKEVERELSEYFEVIERLNLEPYEKDHALFVVRKP”, which “soluble on expression in E. coli” value is on record?
Answer: soluble

Question: With “AIAADSAVRGPPGMGGTSTDNMDSVVQGDRRPGSHKGFVEEMRFVAMRLHTRDQAKEGTLEESALPIQEWQPSQQDYLQFLVDSKHVYDFFENFMNQSQDNMFVNFRRTGLERVSALEEDLDWFRQRGFSIPKPEKPGVAYVEYLQSLVQDKPHALLCHWYNFYFAHTAGGRMIGRLMSKLLFDGHVFEFYKWEGDVKQILDQVRVKIDETARDWPREVKDECLKETGLSFSYSGTILGHLAKRG” as the sequence, how does the “soluble on expression in E. coli” value read?
Answer: soluble

Question: For “AIAAQDENKEQPKKDWKTIISPQYWKNSVSLLFTDAEQGNFVLPSLQSVSFSKASETIGKQVKESAKELGALFSAEECPSQQGSKEAPWEVLTAREKPFAKEIEERILKITSDCYRSRKEREEIFLSLSSLKDSHFRWSNNSSEKMKQAMAALEKDPILPDLRAGLVPKRMSEENFWRQYFYLVEKVKKSVVTNSQFGLFDEWESWSDTTSHPTLEHSQENSDLDNEVDQVLNDVLE”, which “soluble on expression in E. coli” value is on record?
Answer: soluble

Question: With “AIAATPTEHEDLSEQEVTEDEFKTPKIRETPEDIKLEAIVNTIAFHPKQDILAAGDIDGDIYLFSYSCTEGENKELWSSGHHLKSCRKVLFSSDGQKLFSVSKDKAIHIMDVEAGKLETRIPKAHKVPINAMLLIDENIFATGDDEGTLKVWDMRKGTSFMDLKHHEDYISDITIDQAKRTLLTSSGDGTLGVFNIKRRRFELLSEIQNGDLTSVSIMKRGRKVVCGSGEGTIYIFNWNGFGATSDRFAVQAESVDCIVPITDSILCAASTDGVIRAINILPNRVVGSIGQHVGEAIEEIARCRDTHFLASCAHDELIKFWDISSLPDEKVNDYRRRKKKDRRLKALSNKAFDTGQNFFAGLLDTTEENGKEGENDEDDDDEDSDSGSD” as the sequence, how does the “soluble on expression in E. coli” value read?
Answer: soluble

Question: For “AIAEAEGMLPPQSLSAKFEGSFAYLTVRDRLPTILTKVVDTLHRNKDNFYKEYGEEGTEAEKRAISFLSRLRNELQTDKPVLALTDNAEDTQAWNEYMERQQDLMENGQLVSWFKSPWLYVECYMYRRIQEALYMNPPMHNFDPFKEGKTQSYFESQQAIKYLCTYLQELITNMENMTEIQLRENFLKLIQVSLWGNKCDLSISAGQDNSQKLSPIDSLPDLQRFILVDDSSMVWSTLVASQGSRSSGMKHARVDIILDNAGFELVTDLVLADFLISSGLAKQIRFHGKSIPWFVSDVTKQDFEWTIKQTMAANHKWMSASGVQWKHFMKEGTWSYHDHPFWTLPHEFCDMTVDAANLYSTLQTSDLILFKGDLNYRKLTGDRKWEHTVRFDQALRGFQPAPLCSLRTLKADVQVGLQAGHAEKLSTQDPDWMTNGKYAVVQFSSPHREQ”, which “soluble on expression in E. coli” value is on record?
Answer: soluble

Question: With “AIAGGAVSAGQDNDELIDNLKEAQYIRTEAVEKAFRAIDRADYYLEEFKQNAYRDLAWKHGNIHLSAPCIYSEVMEALDLQPGLSFLNLGSGTGYLNTMAGLILGPFGINHGVEIHADVIEYAKEKLDLFVHTSDSFDRFDFCEPSFVAGNCLDIALDCMYDRVYCGAGVQKEHKEYMKNLIKVGGILVLPLEEKLTKITRTGPSSWETKKILAVSFAPLIQPDHVESAKSKSLQLPLPNIRSLQDLSRITIRRHIKKIVNQVPNGRGDGVMKNPPRYKRKRLRRRPLQTVVYLEEGGFACRIQNSFDDNNNCEGAGNCEGAGDDLAEKEEQGVSETKPNPPVNFLREKILCLPLPVPLKYYLLYYREK” as the sequence, how does the “soluble on expression in E. coli” value read?
Answer: soluble

Question: With “AIAGSVNSRGHKAEAQVVMMGLDSAGKTTLLYKLKGHQLVETLPTVGFNVEPLKAPGHVSLTLWDVGGQAPLRASWKDYLEGTDILVYVLDSTDEARLPESAAELTEVLNDPNMAGVPFLVLANKQEAPDALPLLKIRNRLSLERFQDHCWELRGCSALTGEGLPEALQSLWSLLKSRSCMCLQARAHGAERGDSKRS” as the sequence, how does the “soluble on expression in E. coli” value read?
Answer: soluble

Question: Which “soluble on expression in E. coli” value does the source give for “AIASKREDEGCARKRRTEAGQRSEDCMNPNSVVISAFKVFQQELDTRYDKYERLVKISRDVTIESKRTIFLLHRVASVPDVEEILNEAEVKLDGVRQKIGQIAEELRGEDLHQFHRAFTPGIQEYVEAVSFHHFIRHRSLISLEEINARLVFIRDNNKAVGEGTFSSPCVLTFQITPTDYLLGVADLTGELMRMCISSVGNGDMDTPFQLSGFLRQIHDGFSLIGNTGPYEVSKKLHALRQSLGKVEDACYTLRVRGSEIPKHMLADVFSSRAAHIDPDDAMA” here?
Answer: soluble

Question: Which “soluble on expression in E. coli” value does the source give for “AKDALLLWCQMKTAGYPNVNVHNFTTSWRDGLAFNAIVHKHRPDLLDFESLKKCNAHYNLQNAFNLAEKELGLTKLLDPEDVNVDQPDEKSIITYVATYYHYFSKMKALAVEGK” here?
Answer: soluble

Question: For “ALAQKRDNVLFQAATDEQPAVIKTLEKLVNIETGTGDAEGIAAAGNFLEAELKNLGFTVTRSKSAGLVVGDNIVGKIKGRGGKNLLLMSHMDTVYLKGILAKAPFRVEGDKAYGPGIADDKGGNAVILHTLKLLKEYGVRDYGTITVLFNTDEEKGSFGSRDLIQEEAKLADYVLSFEPTSAGDEKLSLGTSGIAYVQVNITGKASHAGAAPELGVNALVEASDLVLRTMNIDDKAKNLRFNWTIAKAGNVSNIIPASATLNADVRYARNEDFDAAMKTLEERAQQKKLPEADVKVIVTRGRPAFNAGEGGKKLVDKAVAYYKEAGGTLGVEERTGGGTDAAYAALSGKPVIESLGLPGFGYHSDKAEYVDISAIPRRLYMAARLIMDLGAGK”, which “soluble on expression in E. coli” value is on record?
Answer: soluble

Question: With “ALIDVVVVCDESNSIYPWDAVKNFLEKFVQGLDIGPTKTQVGLIQYANNPRVVFNLNTYKTKEEMIVATSQTSQYGGDLTNTFGAIQYARKYAYSAASGGRRSATKVMVVVTDGESHDGSMLKAVIDQCNHDNILRFGIAVLGYLNRNALDTKNLIKEIKAIASIPTERYFFNVSDEAALLEKAG” as the sequence, how does the “soluble on expression in E. coli” value read?
Answer: soluble

Question: Which “soluble on expression in E. coli” value does the source give for “ALNQMNNLMTQEATGLKILCAPDKDSSFVIYEDDGETMDYANGGYLKTVLDIKAGEQTVLSFRNEGEYETAVEDIYLDVIHREKAPYWVKADGHELPHFLHRKKFEAAQEGWYYSQSLKSVQIKYKNPKKDYEVIVSFEQFDMIGM” here?
Answer: not soluble

Question: With “AMARVGVLGAKGKVGATMVRAVAAADDLTLSAELDAGDPLSLLTDGNTEVVIDFTHPDVVMGNLEFLIDNGIHAVVGTTGFTAERFQQVESWLVAKPNTSVLIAPNFAIGAVLSMHFAKQAARFFDSAEVIELHHPHKADAPSGTAARTAKLIAEARKGLPPNPDATSTSLPGARGADVDGIPVHAVRLAGLVAHQEVLFGTEGETLTIRHDSLDRTSFVPGVLLAVRRIAERPGLTVGLEPLLDLH” as the sequence, how does the “soluble on expression in E. coli” value read?
Answer: soluble

Question: With “AMLAELTHRCPLACPYCSNPLALHGKARELDTQTWARAFDEAAALGVLQLHLSGGEPASRPDLVELTRAAHEAGLYTNLITSGIGLTPARLDALEAVGLDHIQLSLQGTTPDLADRIGGYKGGFARKMAVAAEIKARGIPLTLNAVMHRHNLDDLERTIELAIELGARRLEVACVQFHGWATRNRAALLPSRAQTEAAKRIVAEAEARLRGTLAFDFVPPDYYADYPKACMGGWGSAGLNIAPDGTVLPCHAA” as the sequence, how does the “soluble on expression in E. coli” value read?
Answer: not soluble

Question: Which “soluble on expression in E. coli” value does the source give for “APLKLYGMPLSPNVVRVATVLNEKGLDFEIVPVDLTTGAHKQPDFLALNPFGQIPALVDGDEVLFESRAINRYIASKYASEGTDLLPATASAAKLEVWLEVESHHFYPNASPLVFQLLVRPLLGGAPDAAVVDKHAEQLAKVLDVYEAHLARNKYLAGDEFTLADANHASYLLYLSKTPKAGLVAARPHVKAWWEAIVARPAFQKTVAAIPLPPPP” here?
Answer: soluble

Question: With “APPSSFSAAKQQAVKIYQDHPISFYCGCDIEWQGKKGIPNLETCGYQVRKQQTRASRIEWEAVVPAWQFGHHRQCWQKGGRKNCSKNDQQFRLMEADLHNLTPAIGEVNGDRSNFNFSQWNGVDGVSYGRCEMQVNFKQRKVMPPDRARGSIARTYLYMSQEYGFQLSKQQQQLMQAWNKSYPVDEWECTRDDRIAKIQGNHNPFVQQSCQTQ” as the sequence, how does the “soluble on expression in E. coli” value read?
Answer: soluble

Question: Which “soluble on expression in E. coli” value does the source give for “AQKHVAIALCGKGNIGSSWLKLFAEQKEKLEQRHGMNFELVAVVDSQTYWFNEQGINPNQVATHFQDEALPNQEQSWLKKLGALEGYDEAVVIDVTASEELAEQYLDIAEHGLHLISANKVAGSAAGNYYYQVKDAFHKIGRHWLYNATVGAGLPINHTVRDLRESGDDIMALSGIFSGTLSWLFQQYDGSL” here?
Answer: not soluble

Question: For “AQYKDDPILKAATIVSAPLDLAACANRIEQGFSKVYRRYLLSSLKRNALQKHHLLHGELALSYNSIKRVTRLYEFDDLITAPLHGFKDAQDYYDQCSGLSKLLQITLPTLIIHAKDDPFMTEEVIPKFVLPDNIDYRLFEHGGHVGFLTGT”, which “soluble on expression in E. coli” value is on record?
Answer: not soluble
